Measured values: paper PMC2527117 (The Journal of Biological Chemistry, 2008)

Target: the molecule itself
Assay: SEC

B1: PfUIS3 soluble domain (residues 83-229) (domain or fragment, Plasmodium falciparum, UniProt Q8IEU1 83-229, looked up)
chain: YYGYKKSREDDLYYNKYLEYRNGEYNIKYQDGAIASTSEFYIEPEGINKINLNKPIIENKNNVDVSIKRYNNFVDIARLSIQKHFEHLSNDQKDSHVNNMEYMQKFVQGLQENRNISLSKYQENKAVMDLKYHLQKVYANYLSQEEN
stoichiometry N: 2
